Results on three substances are retold here after patent US20160052993A1.

Assay [1] addresses hFcRn (human) (UniProt P61769). In words: ELISA. The conditions noted are these: other; remark: other sources report otherwise. On the technique in general: An ELISA detects its analyte on a solid surface through an enzyme-linked reagent.
Assay [2] deals with single-chain human FcRn, FLAG/His-tagged (human) (UniProt P61769). In words: ELISA, HSA variant immobilised, schFcRn titrated, pH 5.5 (asterisk).

hFcRn (human), sequence (P55899 24-297, chain 1 of 2): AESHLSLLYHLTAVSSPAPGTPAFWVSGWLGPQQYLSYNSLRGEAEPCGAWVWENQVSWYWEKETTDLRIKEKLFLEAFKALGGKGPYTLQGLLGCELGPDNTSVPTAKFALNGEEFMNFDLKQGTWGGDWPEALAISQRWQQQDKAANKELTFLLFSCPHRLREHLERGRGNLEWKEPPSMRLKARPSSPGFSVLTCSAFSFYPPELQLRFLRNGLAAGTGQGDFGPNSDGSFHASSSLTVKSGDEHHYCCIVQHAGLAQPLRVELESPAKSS
hFcRn (human), sequence (P61769 21-119, chain 2 of 2): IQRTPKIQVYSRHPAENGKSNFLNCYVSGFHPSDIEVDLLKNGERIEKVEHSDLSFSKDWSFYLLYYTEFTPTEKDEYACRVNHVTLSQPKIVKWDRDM

Usually Kd stands for the equilibrium constant for the complex coming apart. Low readings indicate higher affinity, high ones lower affinity. Take “HSA13+H535F (from UniProt P02768 25-609)”: the Kd in assay [1] is 91.8 nM. This lies in the double-digit nanomolar range. With “HSA18 (V424I) (from UniProt P02768 25-609)”, the Kd in assay [2] was found to be 250 nM. That is a sub-micromolar value. Consider “HSA13+H510F (from UniProt P02768 25-609)”, for which the Kd in assay [1] came out at 32 nM. This counts as double-digit nanomolar.
